This assay concerns the target RSV F DS-Cav1 (human respiratory syncytial virus | bacteriophage T4) (UniProt P03420). Description: SEC. (SEC sorts molecules by how far they enter the pores of the column.)

By stoichiometry N is commonly meant a count of units in the complex or per binding partner.

As to “RSV F DS-Cav1 (from UniProt P03420 26-109; P03420 137-513) (domain or fragment)”, the stoichiometry N was 3.

Source of the values: article PMC5016229.
